Data: PMC11294389

How the values were obtained:
[1] = target: GFP-Atx3 15Q (human) (UniProt P54252); test: co-IP; GFP-Trap agarose precipitates GFP-Atx3 from extracts of co-transfected 293T WT cells (1000 µg total protein, 20 µL bead slurry, 4 °C, 1 h); co-precipitated parkin detected by western blot and quantified by densitometry, n = 3
[2] = target: GFP-Atx3 77Q (human) (UniProt P54252); test: as above

reduction of co-precipitated parkin against parkin WT [1]: 87%
reduction of co-precipitated parkin against parkin WT [2]: 62%
Substance: 6xMyc-parkin V380L (from UniProt O60260-1 1-465) (natural protein)
